These results are taken from patent US20060051835A1 (published 2006).

For this assay, the target named is T1, FLAG-tagged Parkin (Wild type) (human, UniProt O60260 1-465).
T1 construct: whole, on cells; Plasmid described in Imai et al. 2000; also called FLAG-Parkin; the full-length Parkin; not shown: FLAG tag
In words: co-immunoprecipitation from 293T cells (FLAG-IP, anti-Myc Western blot). The source says: We have previously reported that the expression of Parkin is increased due to the stress induced by misfolded proteins, so as to have an effect of suppressing cell death resulting from the stress induced by misfolded proteins (Imai, Y. et al. (2000) J Biol Chem 275, 35661-35664). Against endoplasmic reticulum stress, a series of unfolded protein responses (UPR) including endoplasmic reticulum (ER)-associated degradation (ERAD), which regulate gene expression, are induced (Travers, K. J. et al., (2000) Cell 101, 249-258). ERAD degrades misfolded membrane proteins or secretory proteins with the degradation system within the cytoplasm (Plemper, R. K. et al., (1999) Trends Biochem Sci 24, 266-270). ERAD substrate was transported back through the membrane of the endoplasmic reticulum to the cytoplasm, in which it is ubiquitinated and degraded by the action of UBC6, UBC7, proteasome complex and the like (Biederer, T. et al., (1997) Science 278, 1806-1809; Bordallo, J. et al., (1998) Mol Biol Cell 9, 209-222; Gilon, T. et al., (2000) Mol Cell Biol 20, 7214-7219; Wilhovsky, S. et al., (2000) Mol Biol Cell 11, 1697-1708). […] Immunoprecipitates (FLAG-IP) immunoprecipitated with anti-FLAG monoclonal antibodies and soluble total cell extract (Total lysate) were analyzed by Western blotting (WB) using anti-FLAG or anti-Myc antibodies.

T1 sequence (O60260 whole entry): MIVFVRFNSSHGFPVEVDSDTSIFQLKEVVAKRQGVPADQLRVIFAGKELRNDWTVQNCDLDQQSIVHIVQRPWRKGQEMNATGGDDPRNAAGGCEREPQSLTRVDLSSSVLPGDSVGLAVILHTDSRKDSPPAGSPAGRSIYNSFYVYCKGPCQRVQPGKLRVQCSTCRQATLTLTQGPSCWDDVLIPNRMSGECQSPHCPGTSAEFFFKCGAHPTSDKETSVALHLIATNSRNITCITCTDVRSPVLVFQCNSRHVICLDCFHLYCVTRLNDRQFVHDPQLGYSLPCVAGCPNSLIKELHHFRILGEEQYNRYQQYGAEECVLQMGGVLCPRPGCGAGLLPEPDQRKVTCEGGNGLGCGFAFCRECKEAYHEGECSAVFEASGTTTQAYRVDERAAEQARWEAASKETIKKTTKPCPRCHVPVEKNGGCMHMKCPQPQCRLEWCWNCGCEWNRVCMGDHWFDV

B1: Myc-E2-25K (enzyme, human, UniProt P61086 2-200, looked up)
chain: ANIAVQRIKREFKEVLKSEETSKNQIKVDLVDENFTELRGEIAGPPDTPYEGGRYQLEIKIPETYPFNPPKVRFITKIWHPNISSVTGAICLDILKDQWAAAMTLRTVLLSLQALLAAAEPDDPQDAVVANQYKQNPEMFKQTARLWAHVYAGAPVSSPEYTKKIENLCAMGFDRNAVIVALSSKSWDVETATELLLSN
notes: whole, on cells; not shown: Myc tag
B1: the binding result is recorded as “no binding”.

B2: Myc-UBCH6 (enzyme, UniProt P51965 2-193, looked up)
chain: SDDDSRASTSSSSSSSSNQQTEKETNTPKKKESKVSMSKNSKLLSTSAKRIQKELADITLDPPPNCSAGPKGDNIYEWRSTILGPPGSVYEGGVFFLDITFTPEYPFKPPKVTFRTRIYHCNINSQGVICLDILKDNWSPALTISKVLLSICSLLTDCNPADPLVGSIATQYMTNRAEHDRMARQWTKRYAT
notes: as for B1
Turning to B2, the binding result is on record as “no binding”.
